Experimental findings from PMC3259531 are described below.

This experiment deals with Gdown1 (in vitro, construct not stated) (UniProt P0CAP2).

Sequence of Gdown1 (in vitro, construct not stated) (from UniProt P0CAP2-1 1-368) (natural protein) (P0CAP2 whole entry): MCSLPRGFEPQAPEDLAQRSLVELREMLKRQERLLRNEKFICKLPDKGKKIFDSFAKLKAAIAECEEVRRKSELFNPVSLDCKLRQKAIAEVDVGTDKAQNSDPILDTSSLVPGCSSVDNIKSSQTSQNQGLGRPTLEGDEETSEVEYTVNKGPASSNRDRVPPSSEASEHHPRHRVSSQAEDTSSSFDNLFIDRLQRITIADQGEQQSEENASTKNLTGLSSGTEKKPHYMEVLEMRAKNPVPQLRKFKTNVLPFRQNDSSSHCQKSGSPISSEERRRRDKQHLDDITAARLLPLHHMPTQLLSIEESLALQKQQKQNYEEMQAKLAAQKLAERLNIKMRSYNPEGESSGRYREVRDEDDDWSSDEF

The substance “Gdown1 (in vitro, construct not stated) (from UniProt P0CAP2-1 1-368) (natural protein)” came in with a stoichiometry N of 2.

As a reminder, the stoichiometry N is the number of molecules, sites or subunits per partner or assembly.
